Test results as given in article PMC2785850.
pKd: −log10 of the molar value.

Experiments:
LexA-Trx1 fusion protein = LexA-Trx1 fusion protein (UniProt P22217); experiment: yeast one-hybrid interaction assay
[1] = target: histidine-tagged human thioredoxin (human) (UniProt P10599); experiment: pull-down
Sequence of UniProt P10599 (P10599 whole entry): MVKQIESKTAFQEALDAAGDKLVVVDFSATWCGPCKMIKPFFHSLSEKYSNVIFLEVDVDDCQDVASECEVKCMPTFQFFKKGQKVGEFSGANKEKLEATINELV

Sequence of UniProt P22217 (P22217 2-103): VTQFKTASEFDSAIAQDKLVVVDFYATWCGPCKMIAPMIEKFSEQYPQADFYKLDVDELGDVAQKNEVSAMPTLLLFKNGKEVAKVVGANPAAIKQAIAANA

Substance | β-gal activity (nmol ONP / min 10^7 cells) (LexA-Trx1 fusion protein) | pKd [1]
human p53 expressed in yeast from pRS415-p53 (from UniProt P04637 1-393) (natural protein) | 6.56 | 
purified baculovirus-expressed human p53 (from UniProt P04637 1-393) (natural protein) |  | 6.03
